We go through three substances from patent US20200199233A1.

Several values for one entry are separate records, joined by “and”; a condition that tells them apart may be missing. Equal entries are not always repeated.

The target of assay [1] is human MUC16 on cells (OVCAR-3, PEO1, 3T3/hβ2M/HLA-A2/NYESO1p/hMUC16) (human). Put plainly: flow cytometry ('FACS binding', MFI_PE) on cells, the same assay as the other two curves. The control's curve is flat at baseline, so this is a fit value without a response. The unit is taken from the axis, Log10 (M).
The target is the same in assay [2]. In words: cell-based or functional assay.
For assay [3] the target is unchanged. Put plainly: flow cytometry ('FACS binding', MFI_PE) on cells. The sheet names no cell line; the legend of FIGS. 2A-2I names PEO1 (endogenous MUC16). The unit is taken from the axis, Log10 (M).
Another assay has as its target mCD28.mmh (mouse). Put plainly: SPR (Biacore), 37 C, antibody captured by anti-human Fc, mCD28.mmh injected.
The next assay concerns the target hMUC16.mmh (human). Put plainly: SPR (Biacore), 37 C, antibody captured by anti-human Fc, hMUC16.mmh injected.

mCD28.mmh (mouse), sequence (chain, as listed by the source limits assumed): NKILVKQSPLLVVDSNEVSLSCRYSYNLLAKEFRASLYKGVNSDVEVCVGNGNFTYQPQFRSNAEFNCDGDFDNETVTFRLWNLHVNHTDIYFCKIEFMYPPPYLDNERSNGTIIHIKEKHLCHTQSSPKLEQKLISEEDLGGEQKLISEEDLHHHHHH
hMUC16.mmh (human), sequence (chain, as listed by the source limits assumed): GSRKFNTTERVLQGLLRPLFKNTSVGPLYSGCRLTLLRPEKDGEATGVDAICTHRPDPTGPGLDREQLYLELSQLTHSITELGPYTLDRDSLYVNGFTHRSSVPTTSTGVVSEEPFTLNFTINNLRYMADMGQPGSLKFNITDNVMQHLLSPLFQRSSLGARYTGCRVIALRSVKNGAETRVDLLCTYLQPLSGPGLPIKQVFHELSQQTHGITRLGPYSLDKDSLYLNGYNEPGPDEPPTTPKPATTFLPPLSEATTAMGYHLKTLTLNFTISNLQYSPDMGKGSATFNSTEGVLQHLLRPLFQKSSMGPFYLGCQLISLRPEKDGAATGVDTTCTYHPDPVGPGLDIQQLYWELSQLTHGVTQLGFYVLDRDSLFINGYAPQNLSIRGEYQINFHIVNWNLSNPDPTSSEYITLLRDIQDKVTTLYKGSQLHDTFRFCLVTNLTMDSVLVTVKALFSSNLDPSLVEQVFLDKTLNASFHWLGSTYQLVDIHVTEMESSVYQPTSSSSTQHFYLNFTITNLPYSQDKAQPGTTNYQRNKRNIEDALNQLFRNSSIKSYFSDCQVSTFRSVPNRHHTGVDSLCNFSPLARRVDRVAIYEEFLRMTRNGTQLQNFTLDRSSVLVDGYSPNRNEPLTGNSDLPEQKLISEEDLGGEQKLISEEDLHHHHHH

On to “CD3-BINDING CONTROL (bispecific antibody)”, for which the EC50 in assay [1] amounted to 2.27 nM. In other words, the single-digit nanomolar range.

Turning to REGN4018 (bispecific antibody), in assay [2], the PEO1 Kill EC50 [M], human PBMCs, MUC16xCD3 as single agent amounted to 1.27e-10 M; the PEO1 Kill EC50 [M], human PBMCs, MUC16xCD3 titrated in the presence of bs24963D was 1.07e-10 M and 5.31e-11 M; the PEO1 min. % viability, human PBMCs, MUC16xCD3 as single agent came to 57%; the PEO1 min. % viability, human PBMCs, MUC16xCD3 titrated in the presence of bs24963D is 9.8%. Besides, the PEO1 min. % viability, human PBMCs, MUC16xCD3 titrated in the presence of bs32897D in assay [2] came out at 17.7%. The substance further displayed an EC50 in assay [3] of 1.84 nM.

With REGN4615 (bispecific antibody), in the assay with mCD28.mmh (mouse), the Kd was found to be 3.76 nM, the T½ is 2.48 h, the koff was 7.77e-05 s⁻¹ and the kon amounted to 20700 M⁻¹ s⁻¹. In the assay with hMUC16.mmh (human), this substance returned a 90 nM hMUC16.mmh Bind (RU) of 513 RU, a Kd of 0.749 nM, a T½ of 0.408 h and a koff of 0.000472 s⁻¹. In the assay with hMUC16.mmh (human), the kon is 629000 M⁻¹ s⁻¹.
